Read-outs that look alike come from different tables or passages of the source.

Assay [1] addresses GpIbα‐Fc fusion protein. The experiment in a line: ELISA. (In an ELISA, binding on a coated surface is turned into a signal by an enzyme label.)
Assay [2] deals with Dimeric full‐length VWF (ΔPro‐VWF) (human) (UniProt P04275). The experiment in a line: ELISA.
For assay [3], the target named is ΔD′D3‐VWF lacking the NFP (ΔD′D3NFP‾‐VWF) (human) (UniProt P04275). Put plainly: ELISA.
For assay [4], the target named is ΔD′D3‐VWF with Ala mutations replacing Thr/Ser (ΔD′D3OG‾‐VWF) (human) (UniProt P04275). The experiment in a line: ELISA.
Assay [5] deals with ΔD′D3‐VWF lacking the NFP (ΔD′D3NFP‾‐VWF) (human) (UniProt P04275). Put plainly: ELISA. The source holds these as a separate data set.
In assay [6] the target is GpIbα‐Fc fusion protein. The experiment in a line: SPR. A general note: In SPR one partner is held on a chip, and binding of the other changes the refractive index at the surface.

A word on the Kd: it is the constant that tells how readily two partners part at equilibrium. In the assay with GpIbα‐Fc fusion protein [1], “ΔD′D3‐VWF with Ala mutations replacing Thr/Ser (ΔD′D3OG‾‐VWF) (from UniProt P04275 1243-2813) (domain or fragment)” gave a Kd of 2.4 nM.

For the substance “ΔD′D3‐VWF lacking the NFP (ΔD′D3NFP‾‐VWF) (from UniProt P04275 1267-2813) (domain or fragment)”, the Kd with GpIbα‐Fc fusion protein [1] is 0.7 nM.

As for GpIbα‐Fc fusion protein, the Kd came out at 15 nM in assay [2], 7 nM in assay [3], 5 nM in assay [4] and 7.5 nM in assay [5].

Substance “VWF‐A1 (monomeric A1 domain with the N‐terminal flanking peptide) (from UniProt P04275 1243-1480) (domain or fragment)” showed a Kd in the assay with GpIbα‐Fc fusion protein [6] of 1200 nM.

With “D′D3‐A1 (from UniProt P04275 764-1480) (domain or fragment)”, in the assay with GpIbα‐Fc fusion protein [6], the Kd amounted to 1700 nM.

Turning to “Dimeric full‐length VWF (ΔPro‐VWF) (from UniProt P04275 764-2813) (natural protein)”, the Kd with GpIbα‐Fc fusion protein [1] came out at 102 nM.

For the origin of these results see article PMC4323794.
